Earlier results as cited in publication PMC3423493.

Key:
BMP2 (Homo sapiens) = BMP2 (Homo sapiens) (UniProt P12643)
[1] = target: Sclerostin (Homo sapiens) (UniProt Q9BQB4)
Chain of UniProt Q9BQB4 (Q9BQB4 24-213): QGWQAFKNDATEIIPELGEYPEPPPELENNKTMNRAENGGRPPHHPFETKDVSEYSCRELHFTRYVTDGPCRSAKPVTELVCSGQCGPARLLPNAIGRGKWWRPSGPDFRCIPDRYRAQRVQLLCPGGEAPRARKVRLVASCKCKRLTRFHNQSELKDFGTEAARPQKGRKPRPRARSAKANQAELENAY

Chain of UniProt P12643 (P12643 283-396): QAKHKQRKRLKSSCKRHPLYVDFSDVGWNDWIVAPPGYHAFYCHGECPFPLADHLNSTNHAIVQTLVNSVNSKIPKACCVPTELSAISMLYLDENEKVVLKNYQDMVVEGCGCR

Substance: Noggin (from UniProt Q13253)
- Kd (BMP2 (Homo sapiens)): 0.02 nM
- Kd [1]: 2.92 nM
